Target: CD33 (Sino Biological, Cat #12238-H08H) (UniProt P20138 18-259)
Test: BLI, IgG captured on anti-human Fc sensor, 50 nM CD33, pH 7.4 vs pH 5.4

Sequence of CD33 (Sino Biological, Cat #12238-H08H) (P20138 18-259 limits assumed): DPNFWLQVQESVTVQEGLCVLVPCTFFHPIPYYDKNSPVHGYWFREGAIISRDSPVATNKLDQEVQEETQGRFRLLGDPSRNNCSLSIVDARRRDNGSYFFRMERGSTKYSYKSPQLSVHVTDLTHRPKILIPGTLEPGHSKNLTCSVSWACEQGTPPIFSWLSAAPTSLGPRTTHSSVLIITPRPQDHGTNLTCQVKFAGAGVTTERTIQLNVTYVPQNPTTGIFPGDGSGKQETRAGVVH

Row | Binder | binding result
1 | MYT1604 (antibody, V domains shown, IgG; gemtuzumab VL variant #15 (T38H)) VH: EVQLVQSGAEVKKPGSSVKVSCKASGYTITDSNIHWVRQAPGQSLEWIGYIYPYNGGTDYNQKFKNRATLTVDNPTNTAYMELSSLRSEDTDFYYCVNGNPWLAYWGQGTLVTVSS VL: DIQLTQSPSTLSASVGDRVTITCRASESLDNYGIRFLHWFQQKPGKAPKLLMYAASNQGSGVPSRFSGSGSGTEFTLTISSLQPDDFATYYCQQTKEVPWSFGQGTKVEVK | binds
2 | MYT1611 (antibody, V domains shown, IgG; gemtuzumab VL variant #22 (S60H)) VH: EVQLVQSGAEVKKPGSSVKVSCKASGYTITDSNIHWVRQAPGQSLEWIGYIYPYNGGTDYNQKFKNRATLTVDNPTNTAYMELSSLRSEDTDFYYCVNGNPWLAYWGQGTLVTVSS VL: DIQLTQSPSTLSASVGDRVTITCRASESLDNYGIRFLTWFQQKPGKAPKLLMYAASNQGHGVPSRFSGSGSGTEFTLTISSLQPDDFATYYCQQTKEVPWSFGQGTKVEVK | binds
3 | MYT1609 (antibody, V domains shown, IgG; gemtuzumab VL variant #20 (Q58H)) VH: EVQLVQSGAEVKKPGSSVKVSCKASGYTITDSNIHWVRQAPGQSLEWIGYIYPYNGGTDYNQKFKNRATLTVDNPTNTAYMELSSLRSEDTDFYYCVNGNPWLAYWGQGTLVTVSS VL: DIQLTQSPSTLSASVGDRVTITCRASESLDNYGIRFLTWFQQKPGKAPKLLMYAASNHGSGVPSRFSGSGSGTEFTLTISSLQPDDFATYYCQQTKEVPWSFGQGTKVEVK | binds
4 | MYT1608 (antibody, V domains shown, IgG; gemtuzumab VL variant #19 (N57H)) VH: EVQLVQSGAEVKKPGSSVKVSCKASGYTITDSNIHWVRQAPGQSLEWIGYIYPYNGGTDYNQKFKNRATLTVDNPTNTAYMELSSLRSEDTDFYYCVNGNPWLAYWGQGTLVTVSS VL: DIQLTQSPSTLSASVGDRVTITCRASESLDNYGIRFLTWFQQKPGKAPKLLMYAASHQGSGVPSRFSGSGSGTEFTLTISSLQPDDFATYYCQQTKEVPWSFGQGTKVEVK | binds
5 | MYT1605 (antibody, V domains shown, IgG; gemtuzumab VL variant #16 (A54H)) VH: EVQLVQSGAEVKKPGSSVKVSCKASGYTITDSNIHWVRQAPGQSLEWIGYIYPYNGGTDYNQKFKNRATLTVDNPTNTAYMELSSLRSEDTDFYYCVNGNPWLAYWGQGTLVTVSS VL: DIQLTQSPSTLSASVGDRVTITCRASESLDNYGIRFLTWFQQKPGKAPKLLMYHASNQGSGVPSRFSGSGSGTEFTLTISSLQPDDFATYYCQQTKEVPWSFGQGTKVEVK | binds

More lines, now with the values ahead:

Row | binding result | Binder
6 | binds | MYT1606 (antibody, V domains shown, IgG; gemtuzumab VL variant #17 (A55H)) VH: EVQLVQSGAEVKKPGSSVKVSCKASGYTITDSNIHWVRQAPGQSLEWIGYIYPYNGGTDYNQKFKNRATLTVDNPTNTAYMELSSLRSEDTDFYYCVNGNPWLAYWGQGTLVTVSS VL: DIQLTQSPSTLSASVGDRVTITCRASESLDNYGIRFLTWFQQKPGKAPKLLMYAHSNQGSGVPSRFSGSGSGTEFTLTISSLQPDDFATYYCQQTKEVPWSFGQGTKVEVK
7 | binds | MYT1607 (antibody, V domains shown, IgG; gemtuzumab VL variant #18 (S56H)) VH: EVQLVQSGAEVKKPGSSVKVSCKASGYTITDSNIHWVRQAPGQSLEWIGYIYPYNGGTDYNQKFKNRATLTVDNPTNTAYMELSSLRSEDTDFYYCVNGNPWLAYWGQGTLVTVSS VL: DIQLTQSPSTLSASVGDRVTITCRASESLDNYGIRFLTWFQQKPGKAPKLLMYAAHNQGSGVPSRFSGSGSGTEFTLTISSLQPDDFATYYCQQTKEVPWSFGQGTKVEVK
8 | binds | MYT1610 (antibody, V domains shown, IgG; gemtuzumab VL variant #21 (G59H)) VH: EVQLVQSGAEVKKPGSSVKVSCKASGYTITDSNIHWVRQAPGQSLEWIGYIYPYNGGTDYNQKFKNRATLTVDNPTNTAYMELSSLRSEDTDFYYCVNGNPWLAYWGQGTLVTVSS VL: DIQLTQSPSTLSASVGDRVTITCRASESLDNYGIRFLTWFQQKPGKAPKLLMYAASNQHSGVPSRFSGSGSGTEFTLTISSLQPDDFATYYCQQTKEVPWSFGQGTKVEVK

From patent US20220324969A1 (MYTHIC THERAPEUTICS, published 2022)
